According to paper PMC9701221 (Nature Communications, 2022):

B1: bacteriophage SPP1 head completion protein gp16 (stopper protein) (natural protein, UniProt O48446 1-109, looked up)
chain: MYEEFPDVITFQSYVEQSNGEGGKTYKWVDEFTAAAHVQPISQEEYYKAQQLQTPIGYNIYTPYDDRIDKKMRVIYRGKIVTFIGDPVDLSGLQEITRIKGKEDGAYVG
notes: Head completion (stopper) protein gp16 of bacteriophage SPP1; native protein from the virion connector; Hexamer in the connector; monomer in solution before assembly (PDB 2KCA, cited); source: CsCl gradient, EDTA disruption, glycerol gradient
B2: bacteriophage SPP1 head completion protein gp15 (adaptor protein) (natural protein, UniProt Q38584 1-102, looked up)
chain: MDIQRVKRLLSITNDKHDEYLTEMVPLLVEFAKDECHNPFIDKDGNESIPSGVLIFVAKAAQFYMTNAGLTGRSMDTVSYNFATEIPSTILKKLNPYRKMAR
notes: Head completion (adaptor) protein gp15 of bacteriophage SPP1; native protein from the virion connector; C-terminal residues ArgLysMetAlaArg, last residue named Arg102; Dodecamer in the connector; monomer in solution before assembly (PDB 2KBZ, cited); source: CsCl gradient, EDTA disruption, glycerol gradient; copies: 12
B3: bacteriophage SPP1 portal protein gp6 (natural protein, UniProt P54309 1-503, looked up)
chain: MADIYPLGKTHTEELNEIIVESAKEIAEPDTTMIQKLIDEHNPEPLLKGVRYYMCENDIEKKRRTYYDAAGQQLVDDTKTNNRTSHAWHKLFVDQKTQYLVGEPVTFTSDNKTLLEYVNELADDDFDDILNETVKNMSNKGIEYWHPFVDEEGEFDYVIFPAEEMIVVYKDNTRRDILFALRYYSYKGIMGEETQKAELYTDTHVYYYEKIDGVYQMDYSYGENNPRPHMTKGGQAIGWGRVPIIPFKNNEEMVSDLKFYKDLIDNYDSITSSTMDSFSDFQQIVYVLKNYDGENPKEFTANLRYHSVIKVSGDGGVDTLRAEIPVDSAAKELERIQDELYKSAQAVDNSPETIGGGATGPALENLYALLDLKANMAERKIRAGLRLFFWFFAEYLRNTGKGDFNPDKELTMTFTRTRIQNDSEIVQSLVQGVTGGIMSKETAVARNPFVQDPEEELARIEEEMNQYAEMQGNLLDDEGGDDDLEEDDPNAGAAESGGAGQVS
notes: Portal protein gp6 of bacteriophage SPP1, 503 residues; native protein from the virion connector; traced in the cryoEM map from residue 28 to 470; Dodecamer in the connector gp6(12)gp15(12)gp16(6); the assembly-naive recombinant form (PDB 2JES) is a 13-mer; also called connector gp6; gp6 12-mer; source: CsCl gradient, EDTA disruption, glycerol gradient; copies: 12

Experiments:
Test in all cases: cryo-EM structure; single particle cryoEM of the native gp6gp15gp16 connector extracted from tailless DNA-filled capsids, 0.64 mg/mL in 0.5x TBT (Tris-Cl pH 7.5, NaCl, MgCl2); C6 symmetry in the final refinement; 2.7 Å (FSC 0.5)
[1] = molecular target: the molecule itself
[2] = molecular target: B1; details: both partners purified
[3] = molecular target: B3; details: both partners purified

B1
stoichiometry N [1]: 6

B2
binding result [2]: binds | binding result [3]: binds | stoichiometry N [1]: 12

B3
stoichiometry N [1]: 12
